B1: Kinesin-like protein KIF16B, residues 1213 to 1273; numbered along this chain, Q96L93 (parent)
chain: ETWTVFRRYSRFREMHKTLKLKYAELAALEFPPKKLFGNKDERVIAERRSHLEKYLRDFFS

Variants of: B1
Assay: abundance fitness (aPCA) (normalised: wild type 0, dead -1); higher = more abundant; growth selection in yeast, the domain comes from the species named
Conditions: Homo sapiens

Abundance fitness: each site, then its substitutions
I45: M 0.062, D 0.057, L 0.051, G 0.264, E 0.107, A 0.177, H 0.11, F 0.158, C 0.133, K 0.281
A27: W -0.362, F -0.215, C 0.099, V -0.041, S -0.099, R 0.245, T 0.127, G -0.293, D -0.388, L -0.02, Q 0.166, N -0.281, M 0.246, K 0.286
L29: S -0.513, T -0.132, W 0.223, Y -0.31, H -0.38, M 0.337, C -0.228, I 0.427, V -0.033, E -0.883, A 0.172, R -0.192, F -0.188, K -0.226
D41: P -0.167, L 0.332, M 0.231, T -0.101, S 0.065, Y 0.057, H -0.025, W 0.354, I 0.394, K 0.028, N 0.08, R -0.184, F 0.149, C 0.101, V 0.159, G 0.038, E -0.07, Q -0.064, A 0.154
K35: D -0.717, Y -0.073, M -0.36, I -0.521, V -0.34, E -0.786, G -0.148, A -0.204, Q -0.233, S -0.108, T -0.585, N 0.034
K40: G -0.269, Q -0.164
N39: Q 0.054, I 0.06, K 0.203, H 0.05, T -0.291, F -0.246, V -0.011, M -0.063, S -0.033, G 0.036, P -0.102, W -0.108, A 0.174, E -0.397, R 0.04, Y -0.347
L36: E -0.592, G -0.658, D -0.596, K -0.463, W 0.27, Y -0.525, A -0.41, R -0.634, Q -0.976, F -0.02, T -0.453, V -0.435, M -0.586, H -0.826, P -0.317, S -0.67
P32: Y -0.691, T 0.069, A 0.075, Q -0.243, H 0.166, F 0.329, W 0.353, K 0.275, D -0.082, N 0.209, R 0.139, S 0.159, M 0.191, L 0.296, C 0.171, E -0.374
E30: Y 0.322, M 0.347, Q 0.036, W 0.313, S 0.151, G 0.153, A 0.169, R 0.018, D 0.08, H -0.212, T 0.108, V 0.372, I 0.539, L 0.476, N 0.071, K -0.033
K34: V 0.06, A 0.368
F37: V -0.202, I -0.111, T -0.566, Q -0.476, L -0.271, D -0.2, R -0.35, C -0.631, E -0.407, H -0.597, G -0.334, S -0.446, P -0.573, W -0.734, K -0.189, A -0.451
R43: P -0.004, L -0.282, D -0.31, Y -0.489, Q 0.003, G 0.209, E -0.22, I -0.227, M -0.32, W -0.155, H 0.129, N 0.137, A 0.033, V -0.099
